These results are taken from publication PMC10244618.

B1: NF2 (merlin) isoform 7, human, full length (507 aa, lacks exons 2-3 = isoform-1 residues 39-121; exon-16 C-terminus), P35240-4 (parent)
chain: MAGAIASRMSFSSLKRKQPKTFTVRIVTMDAEMEFNCEVKKQILDEKIYCPPEASVLLASYAVQAKYGDYDPSVHKRGFLAQEELLPKRVINLYQMTPEMWEERITAWYAEHRGRARDEAEMEYLKIAQDLEMYGVNYFAIRNKKGTELLLGVDALGLHIYDPENRLTPKISFPWNEIRNISYSDKEFTIKPLDKKIDVFKFNSSKLRVNKLILQLCIGNHDLFMRRRKADSLEVQQMKAQAREEKARKQMERQRLAREKQMREEAERTRDELERRLLQMKEEATMANEALMRSEETADLLAEKAQITEEEAKLLAQKAAEAEQEMQRIKATAIRTEEEKRLMEQKVLEAEVLALKMAEESERRAKEADQLKQDLQEAREAERRAKQKLLEIATKPTYPPMNPIPAPLPPDIPSFNLIGDSLSFDFKDTDMKRLSMEIEKEKVEYMEKSKHLQEQLNELKTEIEALKLKERETALDILHNENSDRGGSSKHNTIKKPQAQGRRPICI

Where “and” joins values, the source holds several entries; their conditions need not be identical. Identical values can stand only once.

Variants of B1 are the subject of the assay. Description: reverse yeast two-hybrid deep mutational scan (rY2H-seq): NF2 isoform 7 mutant library as bait mated with wild-type prey strains; selection on medium lacking adenine for non-interacting pairs; NextSeq paired-end sequencing; enrichment vs …. The note with it: yeast diploids after mating (RBait_S3 x RPrey_S3), 30 °C, selection for reporter genes on NB agar, HIGHER = WEAKER BINDING (the opposite of display enrichments): higher = stronger loss of interaction: reverse Y2H selects yeast in which bait and prey do NOT interact (growth without adenine), so a …, hits-only table, scale: rY2H score, numbering: uniprot, sequence starts at 1.

[1] abbreviates: with EMILIN1 (elastin microfibril interfacer 1), Q9Y6C2, human ABL2 co-expressed as the kinase-dead K35M mutant ….
[2] abbreviates: with NF2 C-terminal domain (wild type; homomeric NF2-NF2 interaction), P35240, human ABL2 co-expressed as the kinase-dead K35M mutant …, partner unresolved.
Where [3] appears, read: with EMILIN1 (elastin microfibril interfacer 1), Q9Y6C2, human tyrosine kinase ABL2 co-expressed as the active kinase ….
The mark [4] stands for this setting: with KDM1A (lysine-specific histone demethylase 1A; the table's label AOF2 is a gene synonym of KDM1A), O60341, human ABL2 co-expressed as the kinase-dead K35M mutant ….
Where [5] appears, read: with KDM1A (lysine-specific histone demethylase 1A; the table's label AOF2 is a gene synonym of KDM1A), O60341, human tyrosine kinase ABL2 co-expressed as the active kinase ….
Setting [6] is: with PIK3R3 (phosphatidylinositol 3-kinase regulatory subunit gamma), Q92569, human tyrosine kinase ABL2 co-expressed as the active kinase ….

For the variant T308E, the enrichment is 2.33 under setting [1] and 3.16 under setting [2].
In the case of T308K, the enrichment is 2.66 and 1.9 under setting [1]; 2.2 and 3.37 under setting [3]; 2.96 under setting [4]; 2.24 under setting [5]; 5.45 under setting [2].
As for D430L, the enrichment under setting [1] worked out at 1.61 and the enrichment under setting [4] came to 3.75.
For D430K, the enrichment under setting [1] stood at 3.35.
On to E344K, for which the enrichment by setting is: under setting [1], 1.78 and 4.12; under setting [3], 3.82 and 2.77; under setting [4], 1.57; under setting [6], 4.06.
Consider E344G, for which the enrichment is 6.34 and 11.1 under setting [1]; 10.3 under setting [4].
E344L: the enrichment under setting [1] is 4.18 and 2.17; the enrichment under setting [3] was 2.34 and 1.8; the enrichment under setting [5] was determined as 2.31.
A365E: the enrichment was 2.64 under setting [1]; 4.87 under setting [3]; 11.9 and 4.42 under setting [4]; 4.53 under setting [2].
For V347E, the enrichment reads like this: under setting [1], 2.33 and 1.87; under setting [4], 3.23; under setting [2], 2.41.
With E367L, the enrichment under setting [1] came out at 6.79 and the enrichment under setting [3] is 1.94.
In the case of E367A, the enrichment under setting [1] was 1.72; the enrichment under setting [3] came out at 3.25; the enrichment under setting [5] was 4.1 and 4.23; the enrichment under setting [6] came to 2.99.
As to K330E, the enrichment by setting is: under setting [1], 2.8 and 1.9; under setting [3], 1.83; under setting [4], 4.14 and 1.58.
For the variant R328E, the enrichment is, setting by setting: under setting [1], 2.55; under setting [6], 3.12.
As for R328A, the enrichment worked out at 2.29 under setting [1] and 1.66 under setting [4].
For the variant E267A, the enrichment under setting [1] came to 2.15.
In the case of S13F, under setting [3], the enrichment came out at 1.87.
As to F415K, the enrichment is, setting by setting: under setting [1], 2.05; under setting [4], 1.8 and 3.49; under setting [6], 2.73.
For the variant L355K, the enrichment under setting [1] was determined as 3.38.
For the variant R471E, the enrichment reads like this: under setting [1], 8.81; under setting [3], 3.88.
Take Q317E: the enrichment reads like this: under setting [1], 1.79; under setting [2], 4.2.
With T429L, the enrichment under setting [1] was 1.9.
Turning to I412A, the enrichment was found to be 2.67 under setting [1] and 3.34 under setting [3].
As to I412L, the enrichment runs as follows: under setting [1], 2.06; under setting [6], 2.03.
For the variant K388A, the enrichment is, setting by setting: under setting [1], 1.75; under setting [4], 2.24 and 3.28; under setting [5], 1.43 and 2.22; under setting [6], 3.36.
For the variant V56K, the enrichment turned out to be 3.86 under setting [3], 8.67 under setting [4] and 3.28 under setting [6].
Regarding P400A, under setting [1], the enrichment was determined as 2.14.
Turning to D374K, the enrichment under setting [1] was 2.38 and the enrichment under setting [6] was 5.15.
For K318T, the enrichment is 1.91 under setting [1] and 1.54 under setting [5].
K318L: the enrichment is 2.66 under setting [1] and 1.75 under setting [3].
In the case of K318E, the enrichment turned out to be 3.15 under setting [1] and 1.81 under setting [5].
E338R: the enrichment under setting [1] was 2.37.
In the case of E338L, the enrichment worked out at 2.57 under setting [1], 2.53 under setting [3], 5.57 under setting [4] and 3.03 under setting [2].
For the variant E338A, the enrichment under setting [1] turned out to be 3.66; the enrichment under setting [3] stood at 4.28; the enrichment under setting [4] came out at 2.42; the enrichment under setting [5] was 6.92; the enrichment under setting [6] came out at 4.09.
E338K: under setting [1], the enrichment worked out at 2.51.
For the variant N402T, the enrichment under setting [1] stood at 1.9.
Regarding L315E, the enrichment under setting [1] worked out at 3.8; the enrichment under setting [4] is 2.62 and 6.59.
As for G486K, the enrichment worked out at 3.4 under setting [1], 5.67 under setting [2] and 10.3 under setting [6].
E296L: the enrichment under setting [1] worked out at 2.9.
Q324A: the enrichment was determined as 1.9 under setting [1], 3.69 under setting [3] and 2.45 under setting [4].
Turning to K372E, the enrichment is 5.53 and 3.24 under setting [1]; 4.46 and 4.21 under setting [3]; 1.68 under setting [4].
As for L291P, the enrichment under setting [1] was 1.99.
K366A: the enrichment under setting [1] is 3.27.
For R364E, the enrichment reads like this: under setting [1], 1.5; under setting [3], 5.32; under setting [2], 2.76.
Consider A302E, for which the enrichment under setting [1] came out at 4.06; the enrichment under setting [4] is 2.49 and 5.
Take E272K: the enrichment was 1.57 under setting [1]; 3.01 and 2.96 under setting [4]; 1.77 under setting [5]; 3.42 and 3.26 under setting [2]; 2.55 and 1.61 and 4.74 under setting [6].
For the variant E272A, the enrichment under setting [1] worked out at 3.71 and the enrichment under setting [4] stood at 2.65.
With A368K, the enrichment under setting [1] was 3.84 and 3.98; the enrichment under setting [4] is 10.5 and 10.2; the enrichment under setting [2] is 5.98.
On to D476K, for which the enrichment was found to be 6.16 under setting [1], 4.37 under setting [3] and 5.97 under setting [6].
In the case of A320L, the enrichment under setting [1] stood at 2.52; the enrichment under setting [3] worked out at 3.39; the enrichment under setting [4] was 4.56 and 4.18.
For the variant A406I, the enrichment by setting is: under setting [1], 8.86; under setting [3], 3.97; under setting [4], 6.43; under setting [6], 5.49.
A406S: the enrichment by setting is: under setting [1], 7.48 and 4.82; under setting [3], 14.3; under setting [4], 11.8; under setting [5], 14.
